Consider four substances from US6891027.

As usually defined, the IC50 is the point on the concentration scale where inhibition reaches its midpoint. A high value points to lower potency.

In assay [1] the target is transgenic membrane IgM and IgD specific for HEL on mouse B cells. Kind of assay: transgenic B cells incubated with 3 nM protein for 10 min, free sites read by subsequent binding of fluorescein-conjugated HEL.
Assay [2] concerns the target CD21 on mouse B cells (mouse) (UniProt P19070). Kind of assay: cell-based or functional assay.
For assay [3], the target named is CD21 on Raji B lymphoblastoid cells (human) (UniProt P20023). Nature of the assay: 50% inhibition of specific binding of [125I]HEL-C3d2 to Raji cells expressing CD21; two experiments.
Chain of CD21 on Raji B lymphoblastoid cells (human) (P20023 21-1033): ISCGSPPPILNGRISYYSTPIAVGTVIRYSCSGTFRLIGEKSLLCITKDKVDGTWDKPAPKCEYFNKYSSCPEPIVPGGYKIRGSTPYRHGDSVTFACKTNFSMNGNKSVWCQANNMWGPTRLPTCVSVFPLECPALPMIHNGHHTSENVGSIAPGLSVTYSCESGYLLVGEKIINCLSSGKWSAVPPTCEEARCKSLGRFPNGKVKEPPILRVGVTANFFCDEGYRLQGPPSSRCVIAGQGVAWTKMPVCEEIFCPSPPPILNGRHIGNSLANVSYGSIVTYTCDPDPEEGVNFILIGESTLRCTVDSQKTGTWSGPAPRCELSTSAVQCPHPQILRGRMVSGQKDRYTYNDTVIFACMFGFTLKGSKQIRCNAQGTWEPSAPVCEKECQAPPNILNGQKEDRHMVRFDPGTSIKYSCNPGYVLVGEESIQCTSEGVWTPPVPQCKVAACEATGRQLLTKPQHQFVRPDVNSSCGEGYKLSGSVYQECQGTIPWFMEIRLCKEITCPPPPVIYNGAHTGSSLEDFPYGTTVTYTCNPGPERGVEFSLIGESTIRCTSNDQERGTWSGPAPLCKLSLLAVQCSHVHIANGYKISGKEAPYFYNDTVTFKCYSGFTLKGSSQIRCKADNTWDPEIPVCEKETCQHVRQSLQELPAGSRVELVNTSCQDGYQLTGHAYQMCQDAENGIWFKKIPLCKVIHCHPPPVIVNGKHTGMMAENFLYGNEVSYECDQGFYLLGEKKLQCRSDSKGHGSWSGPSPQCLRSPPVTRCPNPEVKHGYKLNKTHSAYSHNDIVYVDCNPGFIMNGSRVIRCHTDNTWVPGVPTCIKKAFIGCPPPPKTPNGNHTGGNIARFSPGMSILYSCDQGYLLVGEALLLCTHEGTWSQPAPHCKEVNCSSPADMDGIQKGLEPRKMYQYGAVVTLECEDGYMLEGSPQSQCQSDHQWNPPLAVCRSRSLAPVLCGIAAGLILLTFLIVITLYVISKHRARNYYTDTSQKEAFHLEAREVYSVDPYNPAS
The target in assay [4] is transgenic membrane IgM and IgD specific for HEL on mouse B cells. Kind of assay: cell-based or functional assay.

Chain of CD21 on mouse B cells (mouse) (P19070 12-1025): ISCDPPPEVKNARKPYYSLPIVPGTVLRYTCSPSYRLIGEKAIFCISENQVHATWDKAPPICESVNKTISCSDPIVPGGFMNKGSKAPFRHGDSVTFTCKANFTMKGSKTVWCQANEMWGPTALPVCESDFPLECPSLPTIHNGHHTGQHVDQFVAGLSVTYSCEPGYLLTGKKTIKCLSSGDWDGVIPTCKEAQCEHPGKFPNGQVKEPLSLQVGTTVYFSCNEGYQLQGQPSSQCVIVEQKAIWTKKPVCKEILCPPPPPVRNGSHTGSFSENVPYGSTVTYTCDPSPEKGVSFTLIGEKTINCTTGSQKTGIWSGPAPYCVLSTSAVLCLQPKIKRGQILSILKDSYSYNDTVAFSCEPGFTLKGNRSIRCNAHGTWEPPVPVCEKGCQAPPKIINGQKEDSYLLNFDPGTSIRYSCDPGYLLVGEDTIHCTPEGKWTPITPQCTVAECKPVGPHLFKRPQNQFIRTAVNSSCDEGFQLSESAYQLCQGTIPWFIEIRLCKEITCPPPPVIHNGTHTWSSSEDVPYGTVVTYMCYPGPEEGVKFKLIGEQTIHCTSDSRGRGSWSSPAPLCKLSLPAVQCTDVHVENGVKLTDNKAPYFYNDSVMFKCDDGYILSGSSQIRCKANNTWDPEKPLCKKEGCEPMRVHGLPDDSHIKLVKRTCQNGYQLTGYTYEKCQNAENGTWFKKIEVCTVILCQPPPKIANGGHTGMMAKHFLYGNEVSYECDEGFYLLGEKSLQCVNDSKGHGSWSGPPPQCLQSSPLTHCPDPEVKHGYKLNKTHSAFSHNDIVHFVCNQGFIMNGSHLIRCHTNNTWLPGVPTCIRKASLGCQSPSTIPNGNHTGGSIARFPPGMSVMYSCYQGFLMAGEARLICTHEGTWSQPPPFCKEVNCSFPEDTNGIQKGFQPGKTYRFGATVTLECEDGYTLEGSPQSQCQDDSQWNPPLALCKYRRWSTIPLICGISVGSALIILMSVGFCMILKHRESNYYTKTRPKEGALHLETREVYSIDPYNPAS

On to “HEL-C3d3 recombinant fusion protein (hen egg lysozyme fused to three murine C3d) (from UniProt P00698 19-147; P01027 1006-1302; P01027 1006-1302; P01027 1006-1302)”, for which the % saturation of the anti-HEL sites in assay [1] was 47%. Also, the threshold for increase in [Ca2+]i in HEL-specific B cells in assay [2] was 0.007 nM.

Consider “HEL-C3d recombinant fusion protein (hen egg lysozyme fused to one murine C3d) (from UniProt P00698 19-147; P01027 1006-1302)”, for which the threshold for increase in [Ca2+]i in HEL-specific B cells in assay [2] is 0.7 nM.

As to “HEL-C3d2 recombinant fusion protein (hen egg lysozyme fused to two murine C3d) (from UniProt P00698 19-147; P01027 1006-1302; P01027 1006-1302)”, in assay [3], the IC50 lay within 0.008 to 0.02 µM. In assay [2], this substance yielded a threshold for increase in [Ca2+]i in HEL-specific B cells of 0.07 nM.

Regarding “recombinant hen egg lysozyme with YL1/2 epitope tag (HEL.YL) (from UniProt P00698 19-147)”, the % saturation of the anti-HEL sites in assay [1] amounted to 51%. The same substance gave a threshold for increase in [Ca2+]i in HEL-specific B cells (nM (printed as '7 n')) in assay [4] of 7.
